± gives the standard deviation of the averaged measurements.
Tested on: ATP
Test: switch fluorescence ratio, 500 uM ATP over buffer (Cy3 cluster intensity, sum of 5 cycles each) (fold (ratio)); higher = stronger signal-on switching upon ATP binding; sequences stand for … in TCGTCGGCAGCGTCAGATGTGTATAAGAGACAGTTTTTTTTTTTTTTTTTTTTTTTTT…TC
Settings: aptamer strand: ATP DNA aptamer (quencher-CACCTGGGGGAGTATTGCGGAGGAAGG + anchor), 100 nM annealed; ATP concentration: 500 uM
How it was run: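 Five buffer/ATP imaging cycles were run on Cy3-labelled switching-strand clusters on a modified Illumina MiSeq flow-cell, with NaOH stripping and re-annealing between cycles. In each cycle, clusters annealed to 100 nM quencher-labelled ATP aptamer were imaged in selection buffer, then after 15 min with 500 uM ATP at 22 °C. Per cluster, the fluorescence ratio is summed target-cycle over summed buffer-cycle Cy3 intensity, averaged per switch-domain sequence. Only clusters within 100-1000 RFU were kept.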
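Further: ATP exposure 15 min at 22 °C before imaging.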

TATACTCAGC
switch fluorescence ratio: 1.03 ± 0.014

GGTGAAGCCT
switch fluorescence ratio: 0.991 ± 0.047

CCGTTGGTGG
switch fluorescence ratio: 0.983 ± 0.024

GGGAAACAAA
switch fluorescence ratio: 0.96 ± 0.059

GGTCGCGGGG
switch fluorescence ratio: 1.03 ± 0.027

GATGATAGCG
switch fluorescence ratio: 0.999 ± 0.025

GGGAGGCCGT
switch fluorescence ratio: 1.04 ± 0.027

GCCTGGACGA
switch fluorescence ratio: 1.04 ± 0.018

AAGGGATGCG
switch fluorescence ratio: 1.09 ± 0.097

TACGGTGAGG
switch fluorescence ratio: 1.02 ± 0.011

TGTGGTGGC
switch fluorescence ratio: 0.995 ± 0.019

AGGTCGGGTA
switch fluorescence ratio: 0.979 ± 0.038

TGGGCTACTG
switch fluorescence ratio: 1.04 ± 0.04

CGATTGGGGT
switch fluorescence ratio: 1.02 ± 0.034

TTTGCGGAAT
switch fluorescence ratio: 1.05 ± 0.027

AGGGGGGCGG
switch fluorescence ratio: 0.992 ± 0.039

GGCTTGGGTT
switch fluorescence ratio: 1.01 ± 0.039

TTGTGCTGGA
switch fluorescence ratio: 1.04 ± 0.029

CGAGCGGCTA
switch fluorescence ratio: 1.016 ± 0.0013

TTGGGAATCA
switch fluorescence ratio: 0.988 ± 0.026

TGTAAGTCTT
switch fluorescence ratio: 0.966 ± 0.032

TTTTTCTAAG
switch fluorescence ratio: 1.014 ± 0.007

TCATTGTTGG
switch fluorescence ratio: 1 ± 0.023

CCATATTTGG
switch fluorescence ratio: 1.033 ± 0.0063

ATTTTTTAAG
switch fluorescence ratio: 0.9996 ± 0.0081

TGGGTTATAG
switch fluorescence ratio: 0.9786 ± 0.0038

CGAAACTTTG
switch fluorescence ratio: 0.974 ± 0.046

AAAATGTTTT
switch fluorescence ratio: 1.02 ± 0.031

AAGCTAGGAG
switch fluorescence ratio: 0.999 ± 0.041

TATTGTTTCG
switch fluorescence ratio: 1.02 ± 0.029

GGAGGAAATG
switch fluorescence ratio: 0.949 ± 0.011

AAGGGTGCGA
switch fluorescence ratio: 1.02 ± 0.04

GCTTTTGCCG
switch fluorescence ratio: 0.993 ± 0.036

TGTGGGGCC
switch fluorescence ratio: 1.04 ± 0.03

GCAAATAAGT
switch fluorescence ratio: 1.02 ± 0.038

TGACTACATG
switch fluorescence ratio: 1.04 ± 0.013

GGGGGATCTC
switch fluorescence ratio: 1.01 ± 0.021

TTTATATGCG
switch fluorescence ratio: 1 ± 0.027

GGTTTTGCTT
switch fluorescence ratio: 0.96 ± 0.034

TTTAGAGTCC
switch fluorescence ratio: 1.05 ± 0.098

TTGTTTATGT
switch fluorescence ratio: 0.9993 ± 0.0082

ATTTTAGGTT
switch fluorescence ratio: 0.984 ± 0.03

ATGGTTTGAG
switch fluorescence ratio: 0.997 ± 0.026

TTAAAAAGTT
switch fluorescence ratio: 1 ± 0.031

ACCAGGTCGT
switch fluorescence ratio: 1.51 ± 0.05

TCGGACTGGG
switch fluorescence ratio: 1.01 ± 0.022

GTTTACCTTC
switch fluorescence ratio: 1.04 ± 0.062

TGTGGTATAT
switch fluorescence ratio: 0.993 ± 0.024

GGTCGTGTAA
switch fluorescence ratio: 0.991 ± 0.061

GGTCAAACCC
switch fluorescence ratio: 1.032 ± 0.0044

GTTACAATGG
switch fluorescence ratio: 0.991 ± 0.038

ATAGTCAATT
switch fluorescence ratio: 0.993 ± 0.071

TATTTGGACT
switch fluorescence ratio: 1.04 ± 0.046

ATAGGAATTT
switch fluorescence ratio: 0.993 ± 0.021

AGAGTGGGCC
switch fluorescence ratio: 0.956 ± 0.07

TGCGGAATAT
switch fluorescence ratio: 1.14 ± 0.064

TGAGAGGAGT
switch fluorescence ratio: 0.9911 ± 0.0013

GGCCTAAAAG
switch fluorescence ratio: 0.978 ± 0.022

TGATGTTACC
switch fluorescence ratio: 1.06 ± 0.02

GTGGCATACT
switch fluorescence ratio: 1.12 ± 0.016

TTTGTGAGTA
switch fluorescence ratio: 1 ± 0.023

GTCGGACTAG
switch fluorescence ratio: 1 ± 0.051

ACGAAATCGG
switch fluorescence ratio: 1.03 ± 0.018

CCATTTTATT
switch fluorescence ratio: 0.988 ± 0.031

ACCGGCTGCG
switch fluorescence ratio: 1.08 ± 0.08

AGGGTAGGGT
switch fluorescence ratio: 1.01 ± 0.033

TTATTCATTT
switch fluorescence ratio: 1.001 ± 0.01

GGACAGTGAT
switch fluorescence ratio: 1.01 ± 0.034

GAGCCCTCGG
switch fluorescence ratio: 0.999 ± 0.023

CGGTCTGAGG
switch fluorescence ratio: 1.017 ± 0.002

ATGGGGAGTT
switch fluorescence ratio: 0.972 ± 0.022

ATTAGGTTCT
switch fluorescence ratio: 0.97 ± 0.051

GGTTTATGAA
switch fluorescence ratio: 0.999 ± 0.018

TGGGTTGTTG
switch fluorescence ratio: 0.985 ± 0.038

TTTTTGTTCT
switch fluorescence ratio: 0.996 ± 0.024

CGTGTGGGTT
switch fluorescence ratio: 0.993 ± 0.011

ATGGGGGAAT
switch fluorescence ratio: 1.0184 ± 0.00041

TCAGGGTCCG
switch fluorescence ratio: 0.961 ± 0.017

CCATCGCCGG
switch fluorescence ratio: 1 ± 0.081

CAAAAAGAGT
switch fluorescence ratio: 1.014 ± 0.009

TAGTTTGGGA
switch fluorescence ratio: 1.01 ± 0.03

TATAATTAAT
switch fluorescence ratio: 0.982 ± 0.029

AGGGTTTTAC
switch fluorescence ratio: 1.017 ± 0.0013

AGGATTGAGT
switch fluorescence ratio: 1.024 ± 0.0094

ATCGCTGGGT
switch fluorescence ratio: 1.01 ± 0.019

TCGAGCCTTT
switch fluorescence ratio: 0.9909 ± 0.0014

GCCGTAATGG
switch fluorescence ratio: 1.24 ± 0.089

GCGGTAGACG
switch fluorescence ratio: 1.01 ± 0.021

GAGTGGAAGC
switch fluorescence ratio: 0.964 ± 0.051

ATTTTTACTC
switch fluorescence ratio: 1.01 ± 0.029

ATTAAAGGGC
switch fluorescence ratio: 0.992 ± 0.013

CTACACGAGA
switch fluorescence ratio: 1.09 ± 0.019

GAAATGGGGG
switch fluorescence ratio: 0.991 ± 0.028

TTGGATGAGC
switch fluorescence ratio: 1.03 ± 0.07

AACGGTTGAT
switch fluorescence ratio: 0.974 ± 0.015

CGGTTGGTGG
switch fluorescence ratio: 1.01 ± 0.014

CGCCCCTGTA
switch fluorescence ratio: 1.04 ± 0.035

AGTGAGGCGC
switch fluorescence ratio: 1.01 ± 0.024

GGGTTAGGGG
switch fluorescence ratio: 1.01 ± 0.04

ATATATGCGG
switch fluorescence ratio: 1.11 ± 0.12

AGAAAGCGAC
switch fluorescence ratio: 1.17 ± 0.093

CGATATGGGT
switch fluorescence ratio: 0.9801 ± 0.0026

GGTGGCGTTA
switch fluorescence ratio: 0.999 ± 0.016

ACTTTGAAGT
switch fluorescence ratio: 0.993 ± 0.024

GCGGGGGGAC
switch fluorescence ratio: 1.01 ± 0.015

ACATGGGATT
switch fluorescence ratio: 1.01 ± 0.043

AAAGTATGCT
switch fluorescence ratio: 0.9898 ± 0.0015

TTACGTTTGG
switch fluorescence ratio: 1.02 ± 0.025

AGTTCTATTT
switch fluorescence ratio: 1.01 ± 0.021

GGTGGGGATG
switch fluorescence ratio: 0.984 ± 0.027

TATATATATG
switch fluorescence ratio: 0.955 ± 0.031

GGAGATTGCG
switch fluorescence ratio: 0.96 ± 0.046

GATATCCGAG
switch fluorescence ratio: 1.05 ± 0.011

TCCGTGAGAT
switch fluorescence ratio: 1.44 ± 0.047

GGAAGAGAAC
switch fluorescence ratio: 0.995 ± 0.017

TAGGGGTAGA
switch fluorescence ratio: 1.017 ± 0.0054

ATCCTCTTGC
switch fluorescence ratio: 1.09 ± 0.036

GTTTAGGGTT
switch fluorescence ratio: 1.02 ± 0.018

CGTGTATTGG
switch fluorescence ratio: 0.987 ± 0.013

TTCGGGAGAA
switch fluorescence ratio: 1.01 ± 0.052

CAGTGGCGTC
switch fluorescence ratio: 1.05 ± 0.02

TGAATGGGGC
switch fluorescence ratio: 0.953 ± 0.042

GTTGCGGGTT
switch fluorescence ratio: 1.01 ± 0.039

TCGTATACGG
switch fluorescence ratio: 0.963 ± 0.044

CGTTTGTTGG
switch fluorescence ratio: 0.984 ± 0.028

GGATTACTAA
switch fluorescence ratio: 0.99 ± 0.029

GGTGCAATGA
switch fluorescence ratio: 1.956 ± 0.0021

GGGATGGGGA
switch fluorescence ratio: 1.02 ± 0.032

ATGGTATGCT
switch fluorescence ratio: 0.992 ± 0.022

GTTCGAGGGC
switch fluorescence ratio: 1.046 ± 0.002

AACACGGCTG
switch fluorescence ratio: 1.05 ± 0.027

ATTAGTAAAG
switch fluorescence ratio: 0.9972 ± 0.0073

TTACAGTGGA
switch fluorescence ratio: 1.01 ± 0.0018

GGCATAGAAT
switch fluorescence ratio: 1.001 ± 0.0012

TTGTCGTCAC
switch fluorescence ratio: 1.01 ± 0.037

TTTTTCCAAG
switch fluorescence ratio: 1.02 ± 0.011

ATGATGAGGT
switch fluorescence ratio: 1 ± 0.017

AGATGGGTAC
switch fluorescence ratio: 1.03 ± 0.029

CTATCTGCGG
switch fluorescence ratio: 1.04 ± 0.046

CTGGCAGTGG
switch fluorescence ratio: 1.05 ± 0.054

CAAAGTTTCG
switch fluorescence ratio: 1.04 ± 0.0012

ACATCGGCTT
switch fluorescence ratio: 0.998 ± 0.015

AAGTGGTCAC
switch fluorescence ratio: 1.01 ± 0.029

CACACAGTAT
switch fluorescence ratio: 1.0721 ± 0.00011

TCGGTTACAT
switch fluorescence ratio: 0.983 ± 0.016

AGGGTTGTGC
switch fluorescence ratio: 1.03 ± 0.049

TATGGAAGTA
switch fluorescence ratio: 1.01 ± 0.033

ACGGTAACTC
switch fluorescence ratio: 1.27 ± 0.03

ACGTTGATTC
switch fluorescence ratio: 1.03 ± 0.047

GCTCCAGGGG
switch fluorescence ratio: 2.88 ± 2.5

TTGTTCAGTT
switch fluorescence ratio: 1.02 ± 0.036

TGCGCTGTA
switch fluorescence ratio: 1.02 ± 0.018

GATTTGAAGG
switch fluorescence ratio: 1.01 ± 0.035

TGATAATATT
switch fluorescence ratio: 0.992 ± 0.011

CGGTTGGGTC
switch fluorescence ratio: 1.05 ± 0.051

GTGTTCTAGT
switch fluorescence ratio: 0.955 ± 0.012

TTCCGGGTAT
switch fluorescence ratio: 1.07 ± 0.03

From the supplement of paper PMC10126150
